Experimental data: US20210246166A1 (Bayer, published 2021)
Bridge positions count the residues as written; N and C are the ends. Square brackets hold non-standard residues; d marks the D form. Ends that are not written are not given here. Pro(cis-4-CF3) = O=C(O)[C@@H]1C[C@H](C(F)(F)F)CN1; Oic = O=C(O)[C@@H]1C[C@@H]2CCCC[C@@H]2N1; PEG8 = NCCOCCOCCOCCOCCOCCOCCOCCOCCC(=O)O; Phe(2-Br) = N[C@@H](Cc1ccccc1Br)C(=O)O; tBuAla = CC(C)(C)C[C@H](N)C(=O)O; Chg = N[C@H](C(=O)O)C1CCCCC1; Pen = CC(C)(S)[C@H](N)C(=O)O; NMeC = CN[C@@H](CS)C(=O)O; Orn = NCCC[C@H](N)C(=O)O; Abu = CC[C@H](N)C(=O)O; Sar = CNCC(=O)O

T1: recombinant rat MASP1 active protease (amino acids 302-704, C-terminal His Tag) (rat, UniProt Q8CHN8 302-704)
T1 sequence: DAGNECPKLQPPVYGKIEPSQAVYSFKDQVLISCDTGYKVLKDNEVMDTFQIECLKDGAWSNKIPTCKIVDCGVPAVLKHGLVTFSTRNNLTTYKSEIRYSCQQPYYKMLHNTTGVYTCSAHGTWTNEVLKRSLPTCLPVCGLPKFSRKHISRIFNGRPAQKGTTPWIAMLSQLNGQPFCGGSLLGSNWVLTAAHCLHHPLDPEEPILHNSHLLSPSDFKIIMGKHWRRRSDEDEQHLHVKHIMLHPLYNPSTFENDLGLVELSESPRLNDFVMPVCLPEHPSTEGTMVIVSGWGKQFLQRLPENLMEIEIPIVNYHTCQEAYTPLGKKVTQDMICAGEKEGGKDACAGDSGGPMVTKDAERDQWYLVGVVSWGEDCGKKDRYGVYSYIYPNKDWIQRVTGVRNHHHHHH


Molecular target: T1, recombinant rat MASP1 active protease …
Assay: cell-based or functional assay

rat MASP1 IC50 [nM]	Binder
43	[Sar]ICSRS[tBuAla]PPI[Pen]IP-{PEG4‑CH2CO2H (15 atoms)-NH2} (disulfide 3-11) [Example 73: ((N-Me)G)-IC+SRS-((tBu)A)-PPI-(Pen)+IP-(PEG4-CH2CO2H (15 atoms))-NH2]
70	[Abu]ICSRS[tBuAla]PPICIPD-NH2 (disulfide 3-11; N-terminus assumed; SMILES CC[C@H](N)C(=O)N[C@H](C(=O)N[C@H]1CSSC[C@@H](C(=O)N[C@H](C(=O)N2CCC[C@H]2C(=O)N[C@@H](CC(=O)O)C(N)=O)[C@@H](C)CC)NC(=O)[C@H]([C@@H](C)CC)NC(=O)[C@@H]2CCCN2C(=O)[C@@H]2CCCN2C(=O)[C@H](CC(C)(C)C)NC(=O)[C@H](CO)NC(=O)[C@H](CCCNC(=N)N)NC(=O)[C@H](CO)NC1=O)[C@@H](C)CC) [Example 66: (Abu)-IC+SRS-((tBu)A)-PPIC+IPD-NH2]
72	HICSRS[tBuAla]PPI[NMeC]I-NH2 (disulfide 3-11; N-terminus assumed; SMILES CC[C@H](C)[C@H](NC(=O)[C@@H]1CSSC[C@H](NC(=O)[C@@H](NC(=O)[C@@H](N)Cc2c[nH]cn2)[C@@H](C)CC)C(=O)N[C@@H](CO)C(=O)N[C@@H](CCCNC(=N)N)C(=O)N[C@@H](CO)C(=O)N[C@@H](CC(C)(C)C)C(=O)N2CCC[C@H]2C(=O)N2CCC[C@H]2C(=O)N[C@@H]([C@@H](C)CC)C(=O)N1C)C(N)=O) [Example 154: HIC+SRS-((tBu)A)-PPI-((N-Me)C)+I-NH2]
59	AICSRSLP[Oic]I[NMeC]IP-NH2 (disulfide 3-11; N-terminus assumed; SMILES CC[C@H](C)[C@H](NC(=O)[C@H](C)N)C(=O)N[C@H]1CSSC[C@@H](C(=O)N[C@H](C(=O)N2CCC[C@H]2C(N)=O)[C@@H](C)CC)N(C)C(=O)[C@H]([C@@H](C)CC)NC(=O)[C@@H]2C[C@@H]3CCCC[C@@H]3N2C(=O)[C@@H]2CCCN2C(=O)[C@H](CC(C)C)NC(=O)[C@H](CO)NC(=O)[C@H](CCCNC(=N)N)NC(=O)[C@H](CO)NC1=O) [Example 123: AIC+SRSLP-(Oic)-I-((N-Me)C)+IP-NH2]
11	AICSRS[tBuAla]P[Oic]I[Pen]IPD-NH2 (disulfide 3-11; N-terminus assumed; SMILES CC[C@H](C)[C@H](NC(=O)[C@H](C)N)C(=O)N[C@H]1CSSC(C)(C)[C@@H](C(=O)N[C@H](C(=O)N2CCC[C@H]2C(=O)N[C@@H](CC(=O)O)C(N)=O)[C@@H](C)CC)NC(=O)[C@H]([C@@H](C)CC)NC(=O)[C@@H]2C[C@@H]3CCCC[C@@H]3N2C(=O)[C@@H]2CCCN2C(=O)[C@H](CC(C)(C)C)NC(=O)[C@H](CO)NC(=O)[C@H](CCCNC(=N)N)NC(=O)[C@H](CO)NC1=O) [Example 108: AIC+SRS-((tBu)A)-P-(Oic)-I-(Pen)+IPD-NH2]
66	[Orn]ICSRS[tBuAla]PPI[NMeC]IPD-NH2 (disulfide 3-11; N-terminus assumed; SMILES CC[C@H](C)[C@H](NC(=O)[C@@H](N)CCCN)C(=O)N[C@H]1CSSC[C@@H](C(=O)N[C@H](C(=O)N2CCC[C@H]2C(=O)N[C@@H](CC(=O)O)C(N)=O)[C@@H](C)CC)N(C)C(=O)[C@H]([C@@H](C)CC)NC(=O)[C@@H]2CCCN2C(=O)[C@@H]2CCCN2C(=O)[C@H](CC(C)(C)C)NC(=O)[C@H](CO)NC(=O)[C@H](CCCNC(=N)N)NC(=O)[C@H](CO)NC1=O) [Example 77: (Orn)-IC+SRS-((tBu)A)-PPI-((N-Me)C)+IPD-NH2]
7.2	LICSRS[tBuAla]PPI[NMeC]I-NH2 (disulfide 3-11; N-terminus assumed; SMILES CC[C@H](C)[C@H](NC(=O)[C@@H]1CSSC[C@H](NC(=O)[C@@H](NC(=O)[C@@H](N)CC(C)C)[C@@H](C)CC)C(=O)N[C@@H](CO)C(=O)N[C@@H](CCCNC(=N)N)C(=O)N[C@@H](CO)C(=O)N[C@@H](CC(C)(C)C)C(=O)N2CCC[C@H]2C(=O)N2CCC[C@H]2C(=O)N[C@@H]([C@@H](C)CC)C(=O)N1C)C(N)=O) [Example 65: LIC+SRS-((tBu)A)-PPI-((N-Me)C)+I-NH2]
16	AICSRS[tBuAla]PPI[NMeC]IPD-OH (disulfide 3-11; N-terminus assumed; SMILES CC[C@H](C)[C@H](NC(=O)[C@H](C)N)C(=O)N[C@H]1CSSC[C@@H](C(=O)N[C@H](C(=O)N2CCC[C@H]2C(=O)N[C@@H](CC(=O)O)C(=O)O)[C@@H](C)CC)N(C)C(=O)[C@H]([C@@H](C)CC)NC(=O)[C@@H]2CCCN2C(=O)[C@@H]2CCCN2C(=O)[C@H](CC(C)(C)C)NC(=O)[C@H](CO)NC(=O)[C@H](CCCNC(=N)N)NC(=O)[C@H](CO)NC1=O) [Example 86: AIC+SRS-((tBu)A)-PPI-((N-Me)C)+IPD-OH]
370	[Abu]ICSRSLPP[Chg]CIPD-NH2 (disulfide 3-11; N-terminus assumed; SMILES CC[C@H](N)C(=O)N[C@H](C(=O)N[C@H]1CSSC[C@@H](C(=O)N[C@H](C(=O)N2CCC[C@H]2C(=O)N[C@@H](CC(=O)O)C(N)=O)[C@@H](C)CC)NC(=O)[C@H](C2CCCCC2)NC(=O)[C@@H]2CCCN2C(=O)[C@@H]2CCCN2C(=O)[C@H](CC(C)C)NC(=O)[C@H](CO)NC(=O)[C@H](CCCNC(=N)N)NC(=O)[C@H](CO)NC1=O)[C@@H](C)CC) [Example 169: (Abu)-IC+SRSLPP-(Chg)-C+IPD-NH2]
85	KICSRS[tBuAla]PPI[NMeC]I-NH2 (disulfide 3-11; N-terminus assumed; SMILES CC[C@H](C)[C@H](NC(=O)[C@@H]1CSSC[C@H](NC(=O)[C@@H](NC(=O)[C@@H](N)CCCCN)[C@@H](C)CC)C(=O)N[C@@H](CO)C(=O)N[C@@H](CCCNC(=N)N)C(=O)N[C@@H](CO)C(=O)N[C@@H](CC(C)(C)C)C(=O)N2CCC[C@H]2C(=O)N2CCC[C@H]2C(=O)N[C@@H]([C@@H](C)CC)C(=O)N1C)C(N)=O) [Example 79: KIC+SRS-((tBu)A)-PPI-((N-Me)C)+I-NH2]
77	AICSRS[Phe(2-Br)]PPI[Pen]IPD-NH2 (disulfide 3-11; N-terminus assumed; SMILES CC[C@H](C)[C@H](NC(=O)[C@H](C)N)C(=O)N[C@H]1CSSC(C)(C)[C@@H](C(=O)N[C@H](C(=O)N2CCC[C@H]2C(=O)N[C@@H](CC(=O)O)C(N)=O)[C@@H](C)CC)NC(=O)[C@H]([C@@H](C)CC)NC(=O)[C@@H]2CCCN2C(=O)[C@@H]2CCCN2C(=O)[C@H](Cc2ccccc2Br)NC(=O)[C@H](CO)NC(=O)[C@H](CCCNC(=N)N)NC(=O)[C@H](CO)NC1=O) [Example 104: AIC+SRS-((2-Bromo)F)-PPI-(Pen)+IPD-NH2]
48	[Orn]ICSRS[tBuAla]PPI[NMeC]IPD-NH2 (disulfide 3-11; also: HCl salt) [Example 78: (Orn)-IC+SRS-((tBu)A)-PPI-((N-Me)C)+IPD-NH2 (HCl salt)]
71	[Sar]ICSRS[tBuAla]PPI[Pen]IP-{PEG8-NH2} (disulfide 3-11) [Example 74: ((N-Me)G)-IC+SRS-((tBu)A)-PPI-(Pen)+IP-(PEG8(28 atoms))-NH2]
110	SICSRS[tBuAla]PPI[NMeC]I-NH2 (disulfide 3-11; N-terminus assumed; SMILES CC[C@H](C)[C@H](NC(=O)[C@@H]1CSSC[C@H](NC(=O)[C@@H](NC(=O)[C@@H](N)CO)[C@@H](C)CC)C(=O)N[C@@H](CO)C(=O)N[C@@H](CCCNC(=N)N)C(=O)N[C@@H](CO)C(=O)N[C@@H](CC(C)(C)C)C(=O)N2CCC[C@H]2C(=O)N2CCC[C@H]2C(=O)N[C@@H]([C@@H](C)CC)C(=O)N1C)C(N)=O) [Example 103: SIC+SRS-((tBu)A)-PPI-((N-Me)C)+I-NH2]
140	AICSRSLP[rel‑(1R,3R,5R,6R)‑6‑(Trifluoromethyl)‑2‑azabicyclo(3.1.0)hexane‑3‑carboxylic acid]ICIPD-NH2 (disulfide 3-11)
35	AICSRS[tBuAla]P[Pro(cis-4-CF3)]I[NMeC]IPD-NH2 (disulfide 3-11; N-terminus assumed; SMILES CC[C@H](C)[C@H](NC(=O)[C@H](C)N)C(=O)N[C@H]1CSSC[C@@H](C(=O)N[C@H](C(=O)N2CCC[C@H]2C(=O)N[C@@H](CC(=O)O)C(N)=O)[C@@H](C)CC)N(C)C(=O)[C@H]([C@@H](C)CC)NC(=O)[C@@H]2C[C@H](C(F)(F)F)CN2C(=O)[C@@H]2CCCN2C(=O)[C@H](CC(C)(C)C)NC(=O)[C@H](CO)NC(=O)[C@H](CCCNC(=N)N)NC(=O)[C@H](CO)NC1=O) [Example 128: AIC+SRS-((tBu)A)-P-((4-CF3)P)-I-((N-Me)C)+IPD-NH2]
17	AICSRS[tBuAla]PPI[Pen]IPD-NH2 (disulfide 3-11; N-terminus assumed; SMILES CC[C@H](C)[C@H](NC(=O)[C@H](C)N)C(=O)N[C@H]1CSSC(C)(C)[C@@H](C(=O)N[C@H](C(=O)N2CCC[C@H]2C(=O)N[C@@H](CC(=O)O)C(N)=O)[C@@H](C)CC)NC(=O)[C@H]([C@@H](C)CC)NC(=O)[C@@H]2CCCN2C(=O)[C@@H]2CCCN2C(=O)[C@H](CC(C)(C)C)NC(=O)[C@H](CO)NC(=O)[C@H](CCCNC(=N)N)NC(=O)[C@H](CO)NC1=O) [Example 98: AIC+SRS-((tBu)A)-PPI-(Pen)+IPD-NH2]
220	AICSRS[tBuAla]P[Oic]ICI-NH2 (disulfide 3-11; N-terminus assumed; SMILES CC[C@H](C)[C@H](NC(=O)[C@@H]1CSSC[C@H](NC(=O)[C@@H](NC(=O)[C@H](C)N)[C@@H](C)CC)C(=O)N[C@@H](CO)C(=O)N[C@@H](CCCNC(=N)N)C(=O)N[C@@H](CO)C(=O)N[C@@H](CC(C)(C)C)C(=O)N2CCC[C@H]2C(=O)N2[C@@H](C[C@@H]3CCCC[C@@H]32)C(=O)N[C@@H]([C@@H](C)CC)C(=O)N1)C(N)=O) [Example 99: AIC+SRS-((tBu)A)-P-(Oic)-IC+I-NH2]
